test system: Escherichia coli TOP10; test: shrunken log2 fold change of peptide-encoding DNA abundance (4.5 h post-induction vs induction); higher = less antimicrobial activity (less host growth inhibition); conditions: time post-induction: 4.5 h; library: site-saturation at positions 5, 18, 19, 20
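Note: peptides expressed intracellularly from a pBAD plasmid library in pooled LB shake-flask culture, induced with 0.3% L-arabinose, DNA abundance read by NGS, three biological replicates, DESeq2 with apeglm shrinkage.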

Row | Sequence | shrunken log2 fold change
1 | RRIRTRPPRLPRPRPRPKKMPRP | 0.0999
2 | RRIRTRPPRLPRPRPRPKLFPRP | -0.0805
3 | RRIRTRPPRLPRPRPRPKLMPRP | -0.102
4 | RRIRTRPPRLPRPRPRPKMVPRP | -0.0237
5 | RRIRTRPPRLPRPRPRPKNPPRP | -0.0748
6 | RRIRTRPPRLPRPRPRPKPEPRP | 0.0154
7 | RRIRTRPPRLPRPRPRPKQVPRP | -0.0584
8 | RRIRTRPPRLPRPRPRPKRRPRP | 0.513
9 | RRIRTRPPRLPRPRPRPKSGPRP | 0.0903
10 | RRIRTRPPRLPRPRPRPKSIPRP | -0.194
11 | RRIRTRPPRLPRPRPRPKTFPRP | -0.00423
12 | RRIRTRPPRLPRPRPRPKTGPRP | -0.104
13 | RRIRTRPPRLPRPRPRPKVVPRP | 2.37
14 | RRIRTRPPRLPRPRPRPKYEPRP | -0.144
15 | RRIRTRPPRLPRPRPRPKYQPRP | -0.68
16 | RRIRTRPPRLPRPRPRPLARPRP | -0.0885
17 | RRIRTRPPRLPRPRPRPLCVPRP | -0.357
18 | RRIRTRPPRLPRPRPRPLDKPRP | -0.18
19 | RRIRTRPPRLPRPRPRPLDMPRP | -0.247
20 | RRIRTRPPRLPRPRPRPLDTPRP | -0.566
21 | RRIRTRPPRLPRPRPRPLEGPRP | -0.0217
22 | RRIRTRPPRLPRPRPRPLEQPRP | -0.102
23 | RRIRTRPPRLPRPRPRPLFFPRP | -0.263
24 | RRIRTRPPRLPRPRPRPLGVPRP | -0.194
25 | RRIRTRPPRLPRPRPRPLHFPRP | -0.189

Row | Sequence | shrunken log2 fold change
26 | RRIRTRPPRLPRPRPRPLIQPRP | -0.197
27 | RRIRTRPPRLPRPRPRPLLVPRP | -0.119
28 | RRIRTRPPRLPRPRPRPLMIPRP | -0.0131
29 | RRIRTRPPRLPRPRPRPLNNPRP | -0.135
30 | RRIRTRPPRLPRPRPRPLPAPRP | 0.364
31 | RRIRTRPPRLPRPRPRPLQWPRP | 0.206
32 | RRIRTRPPRLPRPRPRPLRGPRP | 0.897
33 | RRIRTRPPRLPRPRPRPLRIPRP | 0.00602
34 | RRIRTRPPRLPRPRPRPLRTPRP | 0.26
35 | RRIRTRPPRLPRPRPRPLSAPRP | 0.369
36 | RRIRTRPPRLPRPRPRPLSFPRP | -0.124
37 | RRIRTRPPRLPRPRPRPLSWPRP | 0.0654
38 | RRIRTRPPRLPRPRPRPLTEPRP | -0.23
39 | RRIRTRPPRLPRPRPRPLTKPRP | 0.0652
40 | RRIRTRPPRLPRPRPRPLVEPRP | -0.0326
41 | RRIRTRPPRLPRPRPRPLYCPRP | -0.715
42 | RRIRTRPPRLPRPRPRPLYDPRP | -0.824
43 | RRIRTRPPRLPRPRPRPMAAPRP | 0.0975
44 | RRIRTRPPRLPRPRPRPMAFPRP | -0.0075
45 | RRIRTRPPRLPRPRPRPMCGPRP | -0.171
46 | RRIRTRPPRLPRPRPRPMDEPRP | -0.219
47 | RRIRTRPPRLPRPRPRPMDGPRP | -0.123
48 | RRIRTRPPRLPRPRPRPMDNPRP | -0.458
49 | RRIRTRPPRLPRPRPRPMEVPRP | 0.117
50 | RRIRTRPPRLPRPRPRPMFCPRP | -0.628

Row | Sequence | shrunken log2 fold change
51 | RRIRTRPPRLPRPRPRPMHFPRP | -0.0728
52 | RRIRTRPPRLPRPRPRPMHGPRP | -0.0017
53 | RRIRTRPPRLPRPRPRPMKEPRP | -0.164
54 | RRIRTRPPRLPRPRPRPMKIPRP | 0.0884
55 | RRIRTRPPRLPRPRPRPMLVPRP | -0.000238
56 | RRIRTRPPRLPRPRPRPMMVPRP | -0.18
57 | RRIRTRPPRLPRPRPRPMNWPRP | -0.234
58 | RRIRTRPPRLPRPRPRPMPIPRP | -0.0197
59 | RRIRTRPPRLPRPRPRPMPLPRP | -0.104
60 | RRIRTRPPRLPRPRPRPMRLPRP | -0.0194
61 | RRIRTRPPRLPRPRPRPMSAPRP | -0.152
62 | RRIRTRPPRLPRPRPRPMSQPRP | -0.000911
63 | RRIRTRPPRLPRPRPRPMVKPRP | -0.0282
64 | RRIRTRPPRLPRPRPRPMYCPRP | -0.873
65 | RRIRTRPPRLPRPRPRPMYTPRP | -0.156
66 | RRIRTRPPRLPRPRPRPMYVPRP | 0.0319
67 | RRIRTRPPRLPRPRPRPNCNPRP | -0.353
68 | RRIRTRPPRLPRPRPRPNCWPRP | 0.0359
69 | RRIRTRPPRLPRPRPRPNESPRP | -0.379
70 | RRIRTRPPRLPRPRPRPNEWPRP | -0.0827
71 | RRIRTRPPRLPRPRPRPNFHPRP | -0.19
72 | RRIRTRPPRLPRPRPRPNFPPRP | -0.00778
73 | RRIRTRPPRLPRPRPRPNGDPRP | -0.0598
74 | RRIRTRPPRLPRPRPRPNGHPRP | 0.0943
75 | RRIRTRPPRLPRPRPRPNIGPRP | -0.0888

Row | Sequence | shrunken log2 fold change
76 | RRIRTRPPRLPRPRPRPNISPRP | -0.293
77 | RRIRTRPPRLPRPRPRPNLYPRP | -0.255
78 | RRIRTRPPRLPRPRPRPNMTPRP | -0.0848
79 | RRIRTRPPRLPRPRPRPNNQPRP | -0.665
80 | RRIRTRPPRLPRPRPRPNPLPRP | -0.216
81 | RRIRTRPPRLPRPRPRPNRGPRP | -0.0939
82 | RRIRTRPPRLPRPRPRPNRLPRP | 0.0657
83 | RRIRTRPPRLPRPRPRPNSFPRP | -0.00453
84 | RRIRTRPPRLPRPRPRPNSMPRP | -0.496
85 | RRIRTRPPRLPRPRPRPNSNPRP | -0.716
86 | RRIRTRPPRLPRPRPRPNVRPRP | 0.075
87 | RRIRTRPPRLPRPRPRPPAGPRP | 0.279
88 | RRIRTRPPRLPRPRPRPPAVPRP | 0.292
89 | RRIRTRPPRLPRPRPRPPCVPRP | -0.121
90 | RRIRTRPPRLPRPRPRPPECPRP | 0.0838
91 | RRIRTRPPRLPRPRPRPPEDPRP | -0.0168
92 | RRIRTRPPRLPRPRPRPPEEPRP | -0.00968
93 | RRIRTRPPRLPRPRPRPPEHPRP | 0.0826
94 | RRIRTRPPRLPRPRPRPPENPRP | 0.201
95 | RRIRTRPPRLPRPRPRPPFKPRP | 0.332
96 | RRIRTRPPRLPRPRPRPPGYPRP | 0.0573
97 | RRIRTRPPRLPRPRPRPPHSPRP | -0.141
98 | RRIRTRPPRLPRPRPRPPICPRP | 0.0623
99 | RRIRTRPPRLPRPRPRPPIMPRP | -0.454
100 | RRIRTRPPRLPRPRPRPPIQPRP | 0.0675

Row | Sequence | shrunken log2 fold change
101 | RRIRTRPPRLPRPRPRPPLAPRP | 0.65
102 | RRIRTRPPRLPRPRPRPPMTPRP | 0.172
103 | RRIRTRPPRLPRPRPRPPNFPRP | -0.0576
104 | RRIRTRPPRLPRPRPRPPNSPRP | 0.0134
105 | RRIRTRPPRLPRPRPRPPPAPRP | 0.746
106 | RRIRTRPPRLPRPRPRPPSCPRP | 0.35
107 | RRIRTRPPRLPRPRPRPPSWPRP | 0.345
108 | RRIRTRPPRLPRPRPRPPSYPRP | -0.0622
109 | RRIRTRPPRLPRPRPRPPVAPRP | 0.428
110 | RRIRTRPPRLPRPRPRPPVHPRP | 0.0813
111 | RRIRTRPPRLPRPRPRPPWRPRP | 0.747
112 | RRIRTRPPRLPRPRPRPPYCPRP | -0.112
113 | RRIRTRPPRLPRPRPRPQAKPRP | -0.147
114 | RRIRTRPPRLPRPRPRPQEEPRP | -0.0236
115 | RRIRTRPPRLPRPRPRPQGGPRP | 0.114
116 | RRIRTRPPRLPRPRPRPQHGPRP | -0.187
117 | RRIRTRPPRLPRPRPRPQHKPRP | -0.0821
118 | RRIRTRPPRLPRPRPRPQHYPRP | -0.691
119 | RRIRTRPPRLPRPRPRPQICPRP | 0.13
120 | RRIRTRPPRLPRPRPRPQIIPRP | -0.358
121 | RRIRTRPPRLPRPRPRPQILPRP | -0.105
122 | RRIRTRPPRLPRPRPRPQIWPRP | 0.0741
123 | RRIRTRPPRLPRPRPRPQKRPRP | 0.206
124 | RRIRTRPPRLPRPRPRPQLAPRP | 0.129
125 | RRIRTRPPRLPRPRPRPQMDPRP | -0.195

Row | Sequence | shrunken log2 fold change
126 | RRIRTRPPRLPRPRPRPQMIPRP | -0.346
127 | RRIRTRPPRLPRPRPRPQMNPRP | -0.345
128 | RRIRTRPPRLPRPRPRPQMPPRP | 0.588
129 | RRIRTRPPRLPRPRPRPQNQPRP | -0.584
130 | RRIRTRPPRLPRPRPRPQPLPRP | 0.284
131 | RRIRTRPPRLPRPRPRPQPVPRP | -0.0826
132 | RRIRTRPPRLPRPRPRPQQKPRP | -0.0118
133 | RRIRTRPPRLPRPRPRPQSFPRP | 0.015
134 | RRIRTRPPRLPRPRPRPQTMPRP | -0.151
135 | RRIRTRPPRLPRPRPRPQTQPRP | -0.0967
136 | RRIRTRPPRLPRPRPRPQWPPRP | 0.0505
137 | RRIRTRPPRLPRPRPRPQWYPRP | -0.524
138 | RRIRTRPPRLPRPRPRPQYAPRP | -0.317
139 | RRIRTRPPRLPRPRPRPRAVPRP | 0.617
140 | RRIRTRPPRLPRPRPRPRCEPRP | 0.117
141 | RRIRTRPPRLPRPRPRPRDAPRP | 0.881
142 | RRIRTRPPRLPRPRPRPRDNPRP | -0.239
143 | RRIRTRPPRLPRPRPRPRDQPRP | 0.224
144 | RRIRTRPPRLPRPRPRPREMPRP | 0.101
145 | RRIRTRPPRLPRPRPRPREYPRP | -0.00842
146 | RRIRTRPPRLPRPRPRPRFKPRP | 0.115
147 | RRIRTRPPRLPRPRPRPRFPPRP | 0.115
148 | RRIRTRPPRLPRPRPRPRFTPRP | 0.0679
149 | RRIRTRPPRLPRPRPRPRFVPRP | -0.279
150 | RRIRTRPPRLPRPRPRPRFYPRP | -0.367

From the supplement of paper PMC9112550, “Optimization of the antimicrobial peptide Bac7 by deep mutational scanning” (BMC Biology, 2022)
